Laboratory results taken from paper PMC11077065.

What was measured:
[1] = biological target: PhiPA3 ChmC (Chimallin C, gp61), full-length (bacteriophage PhiPA3); assay: SEC-MALS
[2] = biological target: PhiPA3 ChmC-ΔC (residues 204-251 removed) (bacteriophage PhiPA3); assay: SEC-MALS

Row | Substance | stoichiometry N [1] | stoichiometry N [2]
1 | PhiPA3 ChmC (Chimallin C, gp61), full-length (natural protein) | 4 | –
2 | PhiPA3 ChmC-ΔC (residues 204-251 removed) (domain or fragment) | – | 4
